Experimental data reported in publication PMC10958106.

Biological target: AP2 core GST (α2 trunk, β2 trunk and μ2 subunit) (UniProt O94973)
Test: pull-down; AP2 core GST (or empty GST) bound to glutathione resin, incubated 3 h at 4 °C with extracts of HEK293 cells transfected with the receptor with or without HPV-16 E7; lysis buffer 50 mM HEPES pH 7.4, 150 mM NaCl, 1 mM MgCl2, 1% Triton X-100; Western blot

Chain of UniProt O94973 (O94973 whole entry, chain 1 of 3): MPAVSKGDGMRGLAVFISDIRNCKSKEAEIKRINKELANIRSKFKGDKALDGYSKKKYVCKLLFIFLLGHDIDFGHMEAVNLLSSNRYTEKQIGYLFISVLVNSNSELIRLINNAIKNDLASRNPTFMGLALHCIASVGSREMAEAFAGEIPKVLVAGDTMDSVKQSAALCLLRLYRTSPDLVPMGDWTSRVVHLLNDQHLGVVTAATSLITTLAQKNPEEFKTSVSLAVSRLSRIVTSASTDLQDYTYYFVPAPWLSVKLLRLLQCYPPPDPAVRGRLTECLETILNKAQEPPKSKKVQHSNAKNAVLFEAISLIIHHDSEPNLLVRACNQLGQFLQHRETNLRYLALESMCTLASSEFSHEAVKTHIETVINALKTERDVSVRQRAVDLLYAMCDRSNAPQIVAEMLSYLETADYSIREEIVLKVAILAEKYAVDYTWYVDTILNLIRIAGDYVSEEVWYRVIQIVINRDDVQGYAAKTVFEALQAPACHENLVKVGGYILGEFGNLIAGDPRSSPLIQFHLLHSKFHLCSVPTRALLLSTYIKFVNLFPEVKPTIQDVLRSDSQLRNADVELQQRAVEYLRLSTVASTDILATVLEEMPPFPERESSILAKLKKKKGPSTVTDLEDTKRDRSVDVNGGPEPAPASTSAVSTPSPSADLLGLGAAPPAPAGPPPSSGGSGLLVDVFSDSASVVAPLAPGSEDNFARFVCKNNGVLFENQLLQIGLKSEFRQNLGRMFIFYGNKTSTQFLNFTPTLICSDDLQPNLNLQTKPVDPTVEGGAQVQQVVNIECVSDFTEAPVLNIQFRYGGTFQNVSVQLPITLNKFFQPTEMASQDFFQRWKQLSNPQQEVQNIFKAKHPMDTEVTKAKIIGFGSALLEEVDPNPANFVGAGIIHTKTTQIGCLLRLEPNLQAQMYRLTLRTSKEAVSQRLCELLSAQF
Chain of UniProt O94973 (P63010 whole entry, chain 2 of 3, further chain): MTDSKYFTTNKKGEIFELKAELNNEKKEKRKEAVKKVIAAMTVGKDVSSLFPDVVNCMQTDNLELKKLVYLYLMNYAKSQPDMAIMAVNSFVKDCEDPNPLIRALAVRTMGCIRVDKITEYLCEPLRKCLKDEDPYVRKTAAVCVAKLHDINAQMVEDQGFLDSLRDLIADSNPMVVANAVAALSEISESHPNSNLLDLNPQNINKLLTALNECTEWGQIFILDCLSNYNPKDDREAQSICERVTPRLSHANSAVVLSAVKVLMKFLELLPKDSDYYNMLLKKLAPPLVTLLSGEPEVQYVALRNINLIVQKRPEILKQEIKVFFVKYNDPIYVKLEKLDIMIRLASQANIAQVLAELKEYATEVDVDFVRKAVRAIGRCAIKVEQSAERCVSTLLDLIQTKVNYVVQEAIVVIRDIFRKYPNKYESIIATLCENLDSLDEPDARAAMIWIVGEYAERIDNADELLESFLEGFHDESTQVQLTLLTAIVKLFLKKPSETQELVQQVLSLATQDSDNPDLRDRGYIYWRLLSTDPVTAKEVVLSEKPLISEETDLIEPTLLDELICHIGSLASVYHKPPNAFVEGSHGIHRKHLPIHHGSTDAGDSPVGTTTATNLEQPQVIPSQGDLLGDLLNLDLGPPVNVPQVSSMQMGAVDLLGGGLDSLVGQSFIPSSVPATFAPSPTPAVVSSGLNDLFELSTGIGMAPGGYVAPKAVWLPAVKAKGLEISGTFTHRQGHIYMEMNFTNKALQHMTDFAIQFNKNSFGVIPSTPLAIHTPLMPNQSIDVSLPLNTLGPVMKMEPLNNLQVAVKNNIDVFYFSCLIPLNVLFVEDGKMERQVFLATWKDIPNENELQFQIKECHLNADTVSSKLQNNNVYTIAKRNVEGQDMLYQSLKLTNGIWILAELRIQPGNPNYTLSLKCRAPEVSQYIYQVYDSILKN
Chain of UniProt O94973 (Q96CW1 whole entry, chain 3 of 3, further chain): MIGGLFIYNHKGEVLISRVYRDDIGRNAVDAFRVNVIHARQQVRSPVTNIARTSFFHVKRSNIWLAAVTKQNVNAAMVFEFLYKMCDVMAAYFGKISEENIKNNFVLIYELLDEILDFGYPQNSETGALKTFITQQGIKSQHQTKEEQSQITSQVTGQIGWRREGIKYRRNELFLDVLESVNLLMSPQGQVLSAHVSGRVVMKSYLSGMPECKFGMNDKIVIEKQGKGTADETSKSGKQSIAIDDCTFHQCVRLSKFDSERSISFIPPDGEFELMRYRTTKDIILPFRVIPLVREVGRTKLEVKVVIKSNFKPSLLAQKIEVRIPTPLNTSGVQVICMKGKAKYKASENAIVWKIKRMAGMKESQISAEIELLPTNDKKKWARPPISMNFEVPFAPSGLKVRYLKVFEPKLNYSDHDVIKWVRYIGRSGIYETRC

HPV-16 E7-FLAG/HA (from UniProt P03129 1-98) (natural protein)
percent reduction of the binding of CD109 to the AP2 core in the presence of E7: 50% | percent reduction of the binding of EGFR to the AP2 core in the presence of E7: > 70% | percent reduction of the binding of MET to the AP2 core in the presence of E7: 50%
